Assay [1] deals with T1, purified human complement component C8 (human, UniProt P07357).
In assay [2] the target is T2, purified human complement component C9 (human, UniProt P02748).
Assay [3] deals with T1, purified human complement component C8. Kind of assay: cell-based or functional assay.
Assay [4] addresses T2, purified human complement component C9. Kind of assay: cell-based or functional assay.

Results on two molecules are retold here after patent US5847082, “Terminal complement inhibitor fusion proteins” (Alexion Pharmaceuticals, Inc., dated 1998).

Where two headings read alike, the source gives them in different places.

Consider “CD59-MCP TMTCIP (transmembrane form of CD59)”, for which the percent dye release (Calcein AM) after complement attack, Balb/3T3 cells in assay [1] and in assay [2] was 3 fold in each case.

B1: native human CD59, GPI-anchored (other)
chain: LQCYNCPNPTADCKTAVNCSSDFDACLITKAGLQVYNKCWKFEHCNFNDVTTRLRENELTYYCCKKDLCNFNEQLENGGTSLSEKTVLLLVTPFLAAAWSLHP
modifications: glycosyl-phosphatidylinositol (GPI) anchor at the carboxyl terminus
Turning to B1, the “percent dye release (Calcein AM) after complement attack, Balb/3T3 cells” value in assay [3] and in assay [4] was about 3 fold throughout.
